# From patent US20230398116A1, “Agent for reversing resistance to anticancer drugs” (Y'S AC CO., LTD., priority 2020, published 2023)
# Test: Heterogeneous chronic GVHD model (NOG mice transplanted with human umbilical cord blood mononuclear cells)
# Format: in vivo, mouse
# Details: for lung histopathology (inflammatory cell infiltration, fibrogenesis, collagen): eight weeks after transplantation, H&E and Azan-Mallory staining, FIG. 60
# Description: On day −1, NOG mice were irradiated with a sublethal dose (100 cGy). On day 0, 5×10^6 human umbilical cord blood mononuclear cells were transplanted from the tail vein of NOG mice. Survival of the mice was assessed daily and body weight was measured twice a week. In an antibody treatment experiment, the control human IgG or anti-human IL-26 monoclonal antibody (the mouse antibody m69-10 and the humanized antibody h69-10A) was administered from day +28 of transplantation when clinical signs/symptoms of mild GVHD began to appear. The antibody solution was adjusted to a concentration of 1 mg/mL with sterile PBS, and 200 μL (200 μg) of the antibody solution per mouse was intraperitoneally injected twice a week. On day +56 after transplantation, the mice were sacrificed, and the skin, lung, liver, and large intestine were collected.
# NOG mice were dissected, and then the skin, lung, liver, and large intestine on the back were excised, fixed in 10% formalin solution (Wako) at room temperature, and embedded in paraffin. Thereafter, a section having a thickness of 5 μm was prepared and placed on a glass slide, and stained with hematoxylin and eosin (H&E). In addition, in order to confirm the proliferation of collagen fibers, Azan-Mallory staining was performed. Images of the optical microscope were taken with an Olympus BX41 microscope (OLYMPUS, Tokyo, Japan) connected with an Olympus digital camera DP25, and CellSens software was used.
# [1] = 200 μg per mouse i.p. twice a week from day 28, data not shown
molecule,measurement,setting,value
"69-10: mouse anti-human IL-26 monoclonal antibody, clone 69-10, from deposited hybridoma (antibody, V domains shown) VH: QVTLKESGPGILKPSQTLSLTCSFSGFSLSTSGMGVGWIRQPSGKGLEWLAHIWWDDDKYYNPSLKSQLTISKDTSRNQVFLKITSVDTADTATYYCVRGGITATHYYAMDYWGQGTSVTVSS VL: DIQMTQSPASQSASLGESVTISCLASQTIGTWLSWYQQKPGKSPQLLIYAATSLADGVPSRFSGSGSGTKFSFKISSLQAEDFVSYYCQQLYSSPWTFGGGTKLEIK",body weight loss,[1],clearly reduced
same,number of survival days,[1],significantly prolonged
same,"lung histopathology (inflammatory cell infiltration, fibrogenesis, collagen)",,clearly reduced
same,"lung histopathology (inflammatory cell infiltration, fibrogenesis, collagen)",listed as m69-10,"suppression of inflammatory cell infiltration, reduction of fibrogenesis, and reduction of collagen deposition were remarkably observed"
same,hair disorder (appearance),eighth week of transplantation,slightly suppressed
